Test results reported in publication PMC6829621, “An RBPJ-Drosophila Model Reveals Dependence of RBPJ Protein Stability on the Formation of Transcription–Regulator Complexes” (Cells, 2019).

Target: T1, full-length Drosophila Hairless (Drosophila melanogaster, UniProt Q02308 1-1077)
T1 construct: Hairless (H), Drosophila melanogaster, full length (pEG-HFL); also called pEG-HFL; source: yeast two-hybrid fusion (EGY48 yeast, pEG202 vector)
T1 sequence (looked up): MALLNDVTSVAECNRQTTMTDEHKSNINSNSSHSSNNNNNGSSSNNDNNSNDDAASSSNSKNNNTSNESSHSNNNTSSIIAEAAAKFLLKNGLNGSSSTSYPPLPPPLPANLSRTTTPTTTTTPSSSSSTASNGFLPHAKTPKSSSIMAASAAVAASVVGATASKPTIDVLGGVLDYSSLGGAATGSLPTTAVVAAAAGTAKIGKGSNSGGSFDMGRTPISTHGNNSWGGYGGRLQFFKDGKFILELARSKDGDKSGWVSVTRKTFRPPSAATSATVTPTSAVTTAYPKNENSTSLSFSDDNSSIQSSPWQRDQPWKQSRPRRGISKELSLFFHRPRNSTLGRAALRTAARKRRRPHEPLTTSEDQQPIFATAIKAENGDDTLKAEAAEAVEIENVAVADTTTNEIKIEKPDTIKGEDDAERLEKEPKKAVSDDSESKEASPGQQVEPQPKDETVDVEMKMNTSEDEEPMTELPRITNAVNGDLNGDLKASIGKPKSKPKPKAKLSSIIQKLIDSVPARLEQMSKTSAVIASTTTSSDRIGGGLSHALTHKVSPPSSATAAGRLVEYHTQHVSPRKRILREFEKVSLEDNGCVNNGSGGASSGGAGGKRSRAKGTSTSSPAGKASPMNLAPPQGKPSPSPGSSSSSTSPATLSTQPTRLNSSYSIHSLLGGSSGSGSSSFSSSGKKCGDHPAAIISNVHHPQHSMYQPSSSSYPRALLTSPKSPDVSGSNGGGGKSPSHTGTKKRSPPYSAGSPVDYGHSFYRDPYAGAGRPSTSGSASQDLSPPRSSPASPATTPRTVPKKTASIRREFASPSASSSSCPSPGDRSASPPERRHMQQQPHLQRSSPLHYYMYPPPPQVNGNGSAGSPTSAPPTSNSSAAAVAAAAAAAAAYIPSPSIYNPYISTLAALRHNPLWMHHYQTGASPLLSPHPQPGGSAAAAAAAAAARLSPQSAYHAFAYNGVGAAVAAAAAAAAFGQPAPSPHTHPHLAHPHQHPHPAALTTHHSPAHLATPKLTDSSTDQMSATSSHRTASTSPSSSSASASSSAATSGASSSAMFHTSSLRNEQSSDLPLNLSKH
Experiment: two-hybrid; Golemis-Brent system in EGY48 yeast; H fused to LexA DNA-binding domain in pEG202, CSL variants fused to B42-AD in pJG4-5; lacZ reporter pSH18-34; qualitative, and quantified in Miller Units (six clones from two experiments)
Conditions: partners not purified

B1: mouse RBPJ, wild type (natural protein)
chain: not shown
notes: RBPJ, Mus musculus, full-length protein in pJG vector; This is the yeast construct, not the Su(H) exon 1-RBPJ fusion of the flies; also called RBPJ^wt; murine RBPJ; source: yeast two-hybrid fusion (EGY48 yeast, pJG4-5 vector)
B1 was tested, and the “interaction strength relative to that between H and Su(H)” value was ~40%.
